# Data reported in article PMC11852716, “c-di-GMP phosphodiesterase ProE interacts with quorum sensing protein PqsE to promote pyocyanin production in Pseudomonas aeruginosa” (mSphere, 2025).
# B1: PQS quorum sensing protein PqsE (natural protein)
# chain: MLRLSAPGQLDDDLCLLGDVQVPVFLLRLGEASWALVEGGISRDAELVWADLCRWVADPSQVHYWLITHKHYDHCGLLPYLCPRLPNVQVLASERTCQAWKSESAVRVVERLNRQLLRAEQRLPEACAWDALPVRAVADGEWLELGPRHRLQVIEAHGHSDDHVVFYDVRRRRLFCGDALGEFDEAEGVWRPLVFDDMEAYLESLERLQRLPTLLQLIPGHGGLLRGRLAADGAESAYTECLRLCRRLLWRQSMGESLDELSEELHRAWGGQSVDFLPGELHLGSMRRMLEILSRQALPLD
# notes: PqsE of the PQS quorum sensing system, Pseudomonas aeruginosa PAO1; DNA fragment encoding pqsE cloned into pET28b(+); source: E. coli BL21(DE3), pET28b(+), purified (Ni-NTA)
# Key:
# Conditions in all cases: both partners purified
# [1] = molecular target: T1, c-di-GMP phosphodiesterase ProE (Pseudomonas aeruginosa, UniProt Q9HTQ9 1-558); test: SPR; Biacore T200, 25°C, PBST pH 7.4; PqsE amine-coupled on CM5 chip (8,000 RU), ProE injected; 1:1 Langmuir or steady-state affinity model
# T1 construct: ProE, c-di-GMP phosphodiesterase of Pseudomonas aeruginosa PAO1; also called PDE ProE
# T1 sequence: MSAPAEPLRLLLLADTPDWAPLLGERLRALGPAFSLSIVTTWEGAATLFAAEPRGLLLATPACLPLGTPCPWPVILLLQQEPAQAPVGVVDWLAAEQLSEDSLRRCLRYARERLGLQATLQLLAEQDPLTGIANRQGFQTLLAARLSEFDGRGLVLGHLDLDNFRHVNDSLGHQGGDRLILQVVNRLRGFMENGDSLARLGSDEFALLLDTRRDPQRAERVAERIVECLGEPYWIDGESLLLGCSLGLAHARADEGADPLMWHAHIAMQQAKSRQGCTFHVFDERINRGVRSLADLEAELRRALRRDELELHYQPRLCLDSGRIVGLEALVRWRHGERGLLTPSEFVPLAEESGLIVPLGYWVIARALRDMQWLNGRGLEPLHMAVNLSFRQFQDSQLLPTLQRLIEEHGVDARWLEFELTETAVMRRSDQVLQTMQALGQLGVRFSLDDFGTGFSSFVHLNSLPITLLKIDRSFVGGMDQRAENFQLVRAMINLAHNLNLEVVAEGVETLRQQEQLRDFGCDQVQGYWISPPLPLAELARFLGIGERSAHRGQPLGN
# [2] = molecular target: T1, c-di-GMP phosphodiesterase ProE; test: ITC; MicroCal VP-ITC, 25°C; ProE (printed 'Thirty micrometers') in the cell titrated with 300 µM PqsE; PBS with 5 mM β-mercaptoethanol; single set of identical sites model
# [3] = molecular target: T1, c-di-GMP phosphodiesterase ProE; test: SPR; Biacore T200, 25°C, PBST pH 7.4; PqsE amine-coupled on CM5 chip, ProE injected with 10 mM Mg2+
# [4] = molecular target: T1, c-di-GMP phosphodiesterase ProE; test: SPR; Biacore T200, 25°C, PBST pH 7.4; PqsE amine-coupled on CM5 chip, ProE injected with 100 µM c-di-GMP
binder,measurement,setting,value
B1,Kd,[1],3210 nM
same,Kd,[2],5460 nM
same,Kd,[3],2270 nM
same,Kd,[4],2210 nM
